# Test results published in the DeepSol protein solubility set.
# Assay: soluble on expression in E. coli; label from the status in PepcDB or PDB records
row,Sequence,soluble on expression in E. coli
1,MAERPRTIGNALEYVPEAIKTEAICLAALEIQRYGTVLKYIPDALKTEAMCLAAVQKYGYALEYVPEALKTEAICLAAGYEELQYWPEALKTEAVCLAAVEKNSKLLEFVPEALKTEAVCLAAGYKELQYWPEALKTEAPYLAAVQKDGSMLATVPEALKTEAFCLAAVQKNVRAFEYVPEALKTEAVCLAAVEKNGKLLEFVPEALRTEAICLAALQKDSSLLQYIPEALKTEAFCLTAVQKDSSLLQYVPEAFKTEVICLAAVQKDSSLLQYIPEALKTEAFYLAAVRKDGYSLKYIPEALKTEAICLAAVQKNGYLLKYVPEALKTEAICLSAVKQEGSALAYVPEALKTEALCLAAVQKNSSLLQYVPDTFKTEAFEAKMRSVISSGSGSSGYGIELIKWKFLSKEQKEWLEKIPYYYDSSKALEIPAELFTEEFCLAVVLKNSDGSVLQYIPDAKKTEAVCLAAVHERYKNALRYIPDALKT,not soluble
2,MAESVNLVCTFCGSVCDDGQFDVEQFKSKKLCKLGSAKFSKKERIKAPMIDGKEVSYEEAIEKAAEILVNAKKPLLYGWASTVNEAIRLGVILTEKVGGVYDQCASVCHAPGTLAVIEEGLPGGTLGAIKNRADVVVFWGANPMEAHPRHGMRYSISAKGLLIKDRKQRKVIVVDVRPTKTAKLADEFIQIKPGYDYPIISALRAIISGNADAVPDEVGGVSKEKLVELAETMKNAKYGAVLYGLGVTQSRGRDRNVENAVKLIQLLNRHTRWVIWPMRGHYNVVGAGEVPAWEVGYQYAIDFSRGYPRFSPAEFSAVEVLKRKDCDAALIIASDPVAHFPRAAVKHLKEIPVIQIDPFPNMTTLVANVVIPSAVAGLEAEGTAYRMDGIALRVKKVVESSYWSDEQILEKLLEKVEELKG,not soluble
3,MAEVFVGPVAQGYASGEVTVLLASPRSFCAGVERAIETVKRVLDVAEGPVYVRKQIVHNTVVVAELRDRGAVFVEDLDEIPDPPPPGAVVVFSAHGVSPAVRAGADERGLQVVDATCPLVAKVHAEAARFAARGDTVVFIGHAGHEETEGTLGVAPRSTLLVQTPADVAALNLPEGTQLSYLTQTTLALDETADVIDALRARFPTLGQPPSEDICYATTNRQRALQSMVGECDVVLVIGSCNSSNSRRLVELAQRSGTPAYLIDGPDDIEPEWLSSVSTIGVTAGASAPPRLVGQVIDALRGYASITVVERSIATETVRFGLPKQVRAQ,not soluble
4,MAEVHVRELKGWEEMEEVVALQREVWGRAESDLVPRGLLVAVQDEGGLVAGAFAEGRMVGFVFGFPTKDPALHHSHMLGVLEAYRGTGAALLLKRFQRDWCLARGVRRVVWTFDPMRGVNANFNLRKLGATAKTYLPDHYGPMSGINAGAPSDRLLAEWDL,not soluble
5,MAEYLVPKSAVVFEEEIKKSRFITYLQHTEGLEDARAFWAKIKQEHPNARHHCWAAVAGKPTDSLQLGFSDDGEPAGTAGKPMLSALQGSQLGEISAVVVRYYGGILLGTGGLVRAYGNGVQQALKLIESEIKVERTLFKLDCDYGQLRLVQQLCEKYQVEILSQGFQANIHLILGISEKTIEAFSSELTEKSSGRLVIQLLEIGELEHHHHHH,soluble
6,MAFAGLTDLRLFDNVSHYINELAGEFSPDTAHLHDHNCKCSIVDRLWCDYFGMGTCISREARARRKERKRNIKRLREARNASASPRDPFSNGHRYGHRSRSEGGNGDVRDDIKELIIETLEVIRTLVNNEQEPPQSLLKLNFIADEEKGWTMVVRALIYTIPENDPLGPAVISLFLDECPLPSRESVQTLLLSLGLSSEFVDSKHLPPSWHKNMCIVLGSLAEKMAGSAAVTMFNDKIKGYLMKIICYGLTYFPPNYGKTLKEKNTHCVRMFALLALEKFAQTRENQISICKMFTEMTTHPLIKMEEYLKNEEVSRYWFAKQEGFCAQWALDNIFILESRPYSYETCETSKINAMLNHEDVSEYLKIGPDGLEARCDVSSFESVRCTFEVMDGVWYYEATVLTSGVMQIGLATKRSRFLNHEGYGIGDDASSVAYDGCRQLVWYNAKSHKHEHENWQPGDVIGVLLNIPEGEVVFYLNGTPLKEPETEFLSNRQPSEGVFAAASFMSFQQCRFNFGASRFKYNPGKKFRCFNDFGKLSTEQRTIVPRRLRLELLEKEHIPEDYCTICFAAPGSTTLLPCNHDGFCSDCCNMMDHCPLCRKPIEERIQKTKNNRSFDNVKSPSNSSISAFVRVNSQRKSTRATSAVATHPTDTVIHTGITTANNRDIARRHTQV,not soluble
7,MAFDAARYVHRYYASLAPAPGNEYPRLRAWEYLWEYVWDPSRSWDDLTAPEQLDTTALHLGFYLANWGMFRGSSGLLQNSNLDLMKALARQLFSGAGPELFELSLVDFAGNGARLAHNRKLLETVLGSMDALSSRVSWTDTLKSKILLGVWGEFPALDRHYVAACRALYPRRGLTSVNGGTLTALHRLIGEERLSFPRLETARKGLLYPTGRLADMAFFQYGLENALEHHHHHH,soluble
8,MAFHHGRRCRITPLPETESLQESKKMNINELGARIDRPTIRELIAYATCRNRPISNSTLLRMEKDGRIPCRLKTPLTSPVWDTREVLEALGLQQ,not soluble
9,MAFICELDEQWSYVGSKARQHWLGYAYNTKTGGVLAYTFGPRTDQTCRELLALLTPFNIGMLTSDDWGSYGREVPKNKHLTGKIFTQRIERNNLTLRTRIKRLGRKTICFSRSVEIHEKVIGAFIEKHMFY,not soluble
10,MAFLGLFSLLVLQSMATGATFPEEAIADLSVNMYNRLRATGEDENILFSPLSIALAMGMMELGAQGSTQEEIRHSMGYDSLKNGEEFSFLKEFSNMVTAKESQYVMKIANSLFVQNGFHVNEEFLQMMKKYFNAAVNHVDFSQNVAVANYINKWVENNTNNLVKDLVSPRDFDAATYLALINAVYFKGNWKSQFRPENTRTFSFTKDDESEVQIPMMYQQGEFYYGEFSDGSNEAGGIYQVLEIPYEGDEISMMLVLSRQEVPLATLEPLVKAQLVEEWANSVKKQKVEVYLPRFTVEQEIDLKDVLKALGITEIFIKDANLTGLYDNKEIFLSKAIHKSFLEVNEEGSEAAAVSGMIAISRMAVLYPQVIVDHPFFFLIRNRRTGTILFMGRVMHPETMNTSGHDFEEL,soluble
11,MAFPRRLLSLSLRVKDLEAALFFYRDLLGLKVEADPPRYRLFPEGRGFLLELLHDPEAPLRPYPSLGLYHFALLLPHRKALAGVFRRLLEAGAHFEGAADHGVSEALYFRDPEGNGLELYRDRPKEAWPKGPLMFTAPLNLEKLLAENPDPTPLPPETLLGHLHLHVEDLAAAEAFFNGKLGMEVTLRTYPGALFFAWDGYHHHVGANTWAGRRKAPPGATGLLGYTLLAPPGVPPGEHPDPTGALARVLTEPPPSP,soluble
12,MAFSSRKEISSRNSERSTDDTACLRMSENGVALWCEKNVFVQENQPFVDYLPYFCSKVIGTLSIGKNLCGSFSGEKQSIPDKTIMVNIKI,not soluble
13,MAGCSMMKVDRTFPDLKEIPVDLATRFRQMIEWLEIANSECRLTPYKKISHIYQIFHSQGVLECLFRRGEDDISFMIEASVYLLDHPLDGSRSSSPTICDFAGVLPTIFVTFRNKRLGTMVSGASVEFMEFAHHIQEHIHRTSFPEIRTAEIHKISLIDVRFGNMDRNAKNIIVKVEDNIPHFVPIDHEMCFINTGQNYNLCKPYWLSLEDSSIYEA,soluble
14,MAGDPMDTISRISSYVAGKVVKYPGLKYIAGVAISYAIHKFEESGLWRSVPIDKYIQLPRELEHHHHHH,not soluble
15,MAGDPMGSGESKANTAETPEVLDVKLTGPEKVNPGESAAYEAAVSYGDEAVTDADEVEFEVWKEGEKDASQMFKVKQEKGVYRLETTFKEDGVYTVQSHVTAKKQHSMPTLKVQVGDADAASNQSEEEHSHHHLEHHHHHH,soluble
16,MAGDPMMSITIEQIRGALAGVADPQTGLELNVCVKDRDIHLAADPAALTIELGYPAGGVADSVRALAGAALAAAGLGAVRVAVTWNIIAHAVQPGLKPLPQVRNIIAVASGKGGVGKSTTAVNLALALAAEGARAGLLDADIYGPSVPAMLGLAGRPESRDNKTMEPLVGHGLQANSIGLLIDADAPAIWRGPMVTQALEQLLRQTNWRDLDYLVVDMPPGTGDIALTLAQKVPVAGAVIVTTPQDIALLDARKGLRMFQKVHVPILGVVENMAVHICPQCGHAEHIFGAGGGRRVAEQYEVPWLGSLPLQRAIREQTDAGNPTVAAEPESEVAGIYRDIARRVAARIAGLPRDMAGKLPAVVVRPALEHHHHHH,not soluble
